In FireProtDB (doi:10.1021/bi027202n):
Several values for one entry are separate records, joined by “and”; a condition that tells them apart may be missing. Equal entries are not always repeated.

Conditions: Geobacillus stearothermophilus, pH 5.4, CD, sodium phosphate 10 mM, reversible: yes(>90%), whole UniProt chain shown; for denaturant m value / denaturant midpoint (higher = more stable) / unfolding free energy: 25 °C, Urea

B1: Large ribosomal subunit protein bL9 wild type, P02417 (protein)
chain: MKVIFLKDVKGKGKKGEIKNVADGYANNFLFKQGLAIEATPANLKALEAQKQKEQRQAAEELANAKKLKEQLEKLTVTIPAKAGEGGRLFGSITSKQIAESLQAQHGLKLDKRKIELADAIRALGYTNVPVKLHPEVTATLKVHVTEQK
In the case of B1, the denaturant m value (sodium chloride 100 mM) is reported as 0.72 kcal/mol/M and 0.64 kcal/mol/M, the “denaturant midpoint (higher = more stable)” value (sodium chloride 100 mM) is reported as 6.18 M and 3.16 M and the unfolding free energy (sodium chloride 100 mM) is reported as 4.45 kcal/mol and 2.02 kcal/mol. The denaturant m value (sodium chloride 750 mM) was 0.62 kcal/mol/M and 0.66 kcal/mol/M, the “denaturant midpoint (higher = more stable)” value (sodium chloride 750 mM) was 7.76 M and 3.64 M and the unfolding free energy (sodium chloride 750 mM) was 4.81 kcal/mol and 2.4 kcal/mol. The Tm (Thermal, sodium chloride 100 mM) was 56 °C.
